Source: patent US20220275083A1 (EUTILEX, published 2022)
Each block holds one binder with its values, some of them ahead of it.

What was measured:
4-1BB antigen (abclon) = target: T1, 4-1BB antigen (abclon) (UniProt Q07011 24-186); experiment: SPR, Biacore T200; variant captured on CM5, 4-1BB antigen injected
T1 construct: Bought antigen
Procedure: (§1) Affinity to 4-1BB was determined using the bispecific epitope binding protein variants diluted to 5 μg/ml and then fixed to CM5 chip (Cytiva, BR-1005-30) with human capture (Cytiva, Cat. No. BR-1008-39). The 4-1BB antigen (abclon) was injected at concentrations of 100, 50, 25, 12.5, 6.25, and 3.125 nM, the association time was set to 150 seconds, and the dissociation time was set to 240 seconds. Biacore T200 (cytiva) was used as the analysis equipment.

[1] = target: T2, PD-L1 antigen (SinoBiologics, Cat. No. 10084-H08H) (human, UniProt Q9NZQ7 19-238); experiment: SPR, Biacore T200; variant captured on CM5, PD-L1 antigen injected
T2 construct: Bought antigen; also called human PD-L1
Procedure: as §1
Affinity to PD-L1 was determined using the bispecific epitope binding protein variants diluted to 10 μg/ml and then fixed to CM5 chip with human capture.

T2 sequence (Q9NZQ7 19-238 limits assumed): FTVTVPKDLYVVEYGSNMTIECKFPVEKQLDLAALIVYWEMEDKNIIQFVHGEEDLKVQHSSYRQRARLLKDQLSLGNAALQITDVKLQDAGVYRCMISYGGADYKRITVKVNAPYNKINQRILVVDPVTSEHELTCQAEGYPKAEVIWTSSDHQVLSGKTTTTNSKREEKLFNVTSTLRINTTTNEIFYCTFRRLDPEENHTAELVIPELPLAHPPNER
T1 sequence (Q07011 24-186): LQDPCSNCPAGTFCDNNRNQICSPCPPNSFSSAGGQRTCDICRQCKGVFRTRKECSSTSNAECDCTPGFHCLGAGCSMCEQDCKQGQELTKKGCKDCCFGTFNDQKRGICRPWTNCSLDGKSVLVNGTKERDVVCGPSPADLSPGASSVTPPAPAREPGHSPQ

B3: bispecific epitope binding protein S06 (bispecific antibody)
chain: FLESPDRPWNAPTFSPALLLVAEGDNATFTCSFSNASESFHVVWHRESPSGQTDTLAAFPEDRSQPGQDHRFRVTRLPNGRDFHMSVVRAQRNDSGTYVCGVISLAPKIQIKESLRAELRVTERRAEVPTAHPSPSPRPAGQFQTLVVGGGGGSGGGGSGGGGSFLESPDRPWNAPTFSPALLLVAEGDNATFTCSFSNASESFHVVWHRESPSGQTDTLAAFPEDRSQPGQDHRFRVTRLPNGRDFHMSVVRAQRNDSGTYVCGVISLAPKIQIKESLRAELRVTERRAEVPTAHPSPSPRPAGQFQTLVVGASGGGGSGGGGSDKTHTCPPCPAPEAAGGPSVFLFPPKPKDTLMISRTPEVTCVVVDVSHEDPEVKFNWYVDGVEVHNAKTKPREEQYNSTYRVVSVLTVLHQDWLNGKEYKCAVSNKALPAPIEKTISKAKGQPREPQVYTLPPSREEMTKNQVSLTCLVKGFYPSDIAVEWESNGQPENNYKTTPPVLDSDGSFFLYSKLTVDKSRWQQGNVFSCSVMHEALHNHYTQKSLSLSPGGGGGSGGGGSQVQLVQSGAEVKKPGASVKLSCKASGYTFSSYWMHWVRQAPGQGLEWIGEINPGNGHTNYNEKFKSRVTMTRDTSTSTAYMELSSLRSEDTAVYYCARSFKTARAFAYWGQGTLVTVSSGSTSGSGKPGSGEGSTKGDIVMTQSPAFLSVTPGEKVTITCRASQTISDYLHWYQQKPDQAPKLLIKYASQSISGIPSRFSGSGSGTDFTFTISSLEAEDAATYYCQDGHSWPPTFGQGTKLEIK
notes: Anti-4-1BB 94kvt scFv x euPD-1 with hinge and engineered IgG1 Fc
Kd (4-1BB antigen (abclon)): 3.72 nM | koff (4-1BB antigen (abclon)): 0.000914 s⁻¹ | kon (4-1BB antigen (abclon)): 245000 M⁻¹ s⁻¹ | Kd [1]: 2.22 nM | koff [1]: 0.00186 s⁻¹ | kon [1]: 837000 M⁻¹ s⁻¹

B4: bispecific epitope binding protein S08 (bispecific antibody)
chain: FLESPDRPWNAPTFSPALLLVAEGDNATFTCSFSNASESFHVVWHRESPSGQTDTLAAFPEDRSQPGQDHRFRVTRLPNGRDFHMSVVRAQRNDSGTYVCGVISLAPKIQIKESLRAELRVTERRAEVPTAHPSPSPRPAGQFQTLVVGGGGGSGGGGSGGGGSFLESPDRPWNAPTFSPALLLVAEGDNATFTCSFSNASESFHVVWHRESPSGQTDTLAAFPEDRSQPGQDHRFRVTRLPNGRDFHMSVVRAQRNDSGTYVCGVISLAPKIQIKESLRAELRVTERRAEVPTAHPSPSPRPAGQFQTLVVGASGGGGSGGGGSDKTHTCPPCPAPEAAGGPSVFLFPPKPKDTLMISRTPEVTCVVVDVSHEDPEVKFNWYVDGVEVHNAKTKPREEQYNSTYRVVSVLTVLHQDWLNGKEYKCAVSNKALPAPIEKTISKAKGQPREPQVYTLPPSREEMTKNQVSLTCLVKGFYPSDIAVEWESNGQPENNYKTTPPVLDSDGSFFLYSKLTVDKSRWQQGNVFSCSVMHEALHNHYTQKSLSLSPGGGGGSGGGGSDIVMTQSPAFLSVTPGEKVTITCRASQTISDYLHWYQQKPDQAPKLLIKYASQSISGIPSRFSGSGSGTDFTFTISSLEAEDAATYYCQDGHSWPPTFGQGTKLEIKGSTSGSGKPGSGEGSTKGQVQLVQSGAEVKKPGASVKLSCKASGYTFSSYWMHWVRQAPGQGLEWIGEINPGNGHTNYNEKFKSRVTMTRDTSTSTAYMELSSLRSEDTAVYYCARSFKTARAFAYWGQGTLVTVSS
notes: as for B3
Kd (4-1BB antigen (abclon)): 6.83 nM | koff (4-1BB antigen (abclon)): 0.000764 s⁻¹ | kon (4-1BB antigen (abclon)): 112000 M⁻¹ s⁻¹ | Kd [1]: 2.22 nM | koff [1]: 0.00186 s⁻¹ | kon [1]: 837000 M⁻¹ s⁻¹

B5: bispecific epitope binding protein S07 (bispecific antibody)
chain: FLESPDRPWNAPTFSPALLLVAEGDNATFTCSFSNASESFHVVWHRESPSGQTDTLAAFPEDRSQPGQDHRFRVTRLPNGRDFHMSVVRAQRNDSGTYVCGVISLAPKIQIKESLRAELRVTERRAEVPTAHPSPSPRPAGQFQTLVVGASGGGGSGGGGSDKTHTCPPCPAPEAAGGPSVFLFPPKPKDTLMISRTPEVTCVVVDVSHEDPEVKFNWYVDGVEVHNAKTKPREEQYNSTYRVVSVLTVLHQDWLNGKEYKCAVSNKALPAPIEKTISKAKGQPREPQVYTLPPSREEMTKNQVSLTCLVKGFYPSDIAVEWESNGQPENNYKTTPPVLDSDGSFFLYSKLTVDKSRWQQGNVFSCSVMHEALHNHYTQKSLSLSPGGGGGSGGGGSDIVMTQSPAFLSVTPGEKVTITCRASQTISDYLHWYQQKPDQAPKLLIKYASQSISGIPSRFSGSGSGTDFTFTISSLEAEDAATYYCQDGHSWPPTFGQGTKLEIKGSTSGSGKPGSGEGSTKGQVQLVQSGAEVKKPGASVKLSCKASGYTFSSYWMHWVRQAPGQGLEWIGEINPGNGHTNYNEKFKSRVTMTRDTSTSTAYMELSSLRSEDTAVYYCARSFKTARAFAYWGQGTLVTVSS
notes: as for B3
Kd (4-1BB antigen (abclon)): 105 nM | koff (4-1BB antigen (abclon)): 0.000676 s⁻¹ | kon (4-1BB antigen (abclon)): 6430 M⁻¹ s⁻¹ | Kd [1]: 1.58 nM | koff [1]: 0.00158 s⁻¹ | kon [1]: 1e+06 M⁻¹ s⁻¹

Stronger by Kd (4-1BB antigen (abclon)), values ahead:

Kd (4-1BB antigen (abclon)): 2.17 nM | koff (4-1BB antigen (abclon)): 0.000568 s⁻¹ | kon (4-1BB antigen (abclon)): 261000 M⁻¹ s⁻¹ | Kd [1]: 6.26 nM | koff [1]: 0.00131 s⁻¹ | kon [1]: 209000 M⁻¹ s⁻¹
B1: bispecific epitope binding protein S09 (bispecific antibody)
heavy: QVQLVQSGAEVKKPGASVKLSCKASGYTFSSYWMHWVRQAPGQGLEWIGEINPGNGHTNYNEKFKSRVTMTRDTSTSTAYMELSSLRSEDTAVYYCARSFKTARAFAYWGQGTLVTVSSASTKGPSVFPLAPSSKSTSGGTAALGCLVKDYFPEPVTVSWNSGALTSGVHTFPAVLQSSGLYSLSSVVTVPSSSLGTQTYICNVNHKPSNTKVDKKVEPKSCDKTHTCPPCPAPEAAGGPSVFLFPPKPKDTLMISRTPEVTCVVVDVSHEDPEVKFNWYVDGVEVHNAKTKPREEQYNSTYRVVSVLTVLHQDWLNGKEYKCAVSNKALPAPIEKTISKAKGQPREPQVYTLPPSREEMTKNQVSLTCLVKGFYPSDIAVEWESNGQPENNYKTTPPVLDSDGSFFLYSKLTVDKSRWQQGNVFSCSVMHEALHNHYTQKSLSLSPGGGGGSGGGGSFLESPDRPWNAPTFSPALLLVAEGDNATFTCSFSNASESFHVVWHRESPSGQTDTLAAFPEDRSQPGQDHRFRVTRLPNGRDFHMSVVRAQRNDSGTYVCGVISLAPKIQIKESLRAELRVTERRAEVPTAHPSPSPRPAGQFQTLVVG
light: DIVMTQSPAFLSVTPGEKVTITCRASQTISDYLHWYQQKPDQAPKLLIKYASQSISGIPSRFSGSGSGTDFTFTISSLEAEDAATYYCQDGHSWPPTFGQGTKLEIKRTVAAPSVFIFPPSDEQLKSGTASVVCLLNNFYPREAKVQWKVDNALQSGNSQESVTEQDSKDSTYSLSSTLTLSKADYEKHKVYACEVTHQGLSSPVTKSFNRGEC
notes: engineered IgG1 Fc; carries euPD-1

Kd (4-1BB antigen (abclon)): 2.3 nM | koff (4-1BB antigen (abclon)): 0.000601 s⁻¹ | kon (4-1BB antigen (abclon)): 262000 M⁻¹ s⁻¹ | Kd [1]: 3.73 nM | koff [1]: 0.00141 s⁻¹ | kon [1]: 377000 M⁻¹ s⁻¹
B2: bispecific epitope binding protein S10 (bispecific antibody)
heavy: QVQLVQSGAEVKKPGASVKLSCKASGYTFSSYWMHWVRQAPGQGLEWIGEINPGNGHTNYNEKFKSRVTMTRDTSTSTAYMELSSLRSEDTAVYYCARSFKTARAFAYWGQGTLVTVSSASTKGPSVFPLAPSSKSTSGGTAALGCLVKDYFPEPVTVSWNSGALTSGVHTFPAVLQSSGLYSLSSVVTVPSSSLGTQTYICNVNHKPSNTKVDKKVEPKSCDKTHTCPPCPAPEAAGGPSVFLFPPKPKDTLMISRTPEVTCVVVDVSHEDPEVKFNWYVDGVEVHNAKTKPREEQYNSTYRVVSVLTVLHQDWLNGKEYKCAVSNKALPAPIEKTISKAKGQPREPQVYTLPPSREEMTKNQVSLTCLVKGFYPSDIAVEWESNGQPENNYKTTPPVLDSDGSFFLYSKLTVDKSRWQQGNVFSCSVMHEALHNHYTQKSLSLSPGGSTSGSGKPGSGEGSTKGSFLESPDRPWNAPTFSPALLLVAEGDNATFTCSFSNASESFHVVWHRESPSGQTDTLAAFPEDRSQPGQDHRFRVTRLPNGRDFHMSVVRAQRNDSGTYVCGVISLAPKIQIKESLRAELRVTERRAEVPTAHPSPSPRPAGQFQTLVVG
light: B1 light
notes: as for B1
